According to patent US20100104577A1 (published 2010):

What was measured:
Aβ1-42 = molecular target: T1, Aβ1-42 (human, UniProt P05067 672-713); assay: pulldown of conditioned media of transfected 293T cells with fibrillar Aβ42, western blot with anti-His
T1 construct: domain: Aβ1-42; also called Aβ42; fAβ42 (fibrillar form in the pulldown)
Protocol: (§1) Fibrillar Aβ pulldown assays. One mL of conditioned media from 293T HEK cells transiently transfected with pSecTag palsmids encoding the anti-Aβ scFv was incubated with 10 μg of fibrillar Aβ40 or Aβ42 (fAβ) at 4° C. for 1 hour. The fibrils were then spun down and resuspended in SDS-PAGE loading buffer. The presence of scFv was determined by western blot with rabbit anti-His (Bethyl). To determine the Aβ40 binding properties of scFv secreted into the media, capture ELISA was used with Aβ40 peptide as capture and anti-myc-HRP, 1:2000, as detection.
(§2) Prior to testing the effects of the scFv in vivo, the anti-Aβ scFvs expressed from 293T cells were characterized.

Aβ1-40 = molecular target: T2, Aβ1-40 (human, UniProt P05067 672-711); assay: pulldown of conditioned media of transfected 293T cells with fibrillar Aβ40, western blot with anti-His
T2 construct: domain: Aβ1-40; Used as a soluble peptide (ELISA), as fibrils (fAβ40 pulldown) and as expressed in TgBRI-Aβ40, Tg2576 and CRND8 mice (plasma complexes); also called Aβ40; human Aβ40
T2 sequence (P05067 672-711 limits assumed): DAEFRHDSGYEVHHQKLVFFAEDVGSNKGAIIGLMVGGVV
Protocol: as §1, §2

T1 sequence (P05067 672-713 limits assumed): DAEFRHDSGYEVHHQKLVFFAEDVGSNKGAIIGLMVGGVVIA

Row | binding result (Aβ1-42) | binding result (Aβ1-40) | Binder
1 | binds | no binding | scFv42.2 (scFv, VH-linker-VL from mAb42.2; secreted from 293T HEK cells (pSecTag), detected by anti-His and anti-myc; Tested as conditioned medium; also called anti-Aβ42 specific scFv42.2) scFv: EVQLQQSGPELVKPGASGKISCKTSGYTFSENTMHWVKQSHGKSLEWIGGINPNTGATYYNQKFKGKATLTVDTSSSTAYLELRSLTSADSAVYYCVRNGLLTLGAMDYWGQGTSVTVSSGGGGSGGGGSGGGGSDVVMTQTPLSLPVSLGDQASISCRSSQSLVHSNGNTYLYWCLQKPGQSPKLLIYKVSSRFSGVPDRFSGSGSGTDFTLKISRVEAEDLGVYFCSQSTHAPLTFGAGTKLELKR
2 | – | binds | scFv40.1 (scFv, VH-linker-VL from mAb40.1; secreted from 293T HEK cells (pSecTag), detected by anti-His and anti-myc; Tested as conditioned medium) scFv: EVQLQQSGADLVKPGASVKLSCTASGFNIKATYMHWVRQRPEQGLEWIGRIDPANGDTKYDPKFQGKATLTVDTSSNTAYLQLSSLTSEDTAVYYCSTLYYREAYWGQGTLVTVSAGGGGSGGGSGGGGSDVVMTQTPLTLSVTIGQPASISCKSSQRLIYSDGKTYLNWLLQRPGQSPKRLIYLVSKLDSGVPDRFTGSGSGTDFTLKISRVEAEDLGVYYCWQGTHFPVTFGAGTKLELKR
